Measurements taken from article PMC2278140, “Regulation of the cd38 promoter in human airway smooth muscle cells by TNF-α and dexamethasone”.

Columns and labels:
Details in all cases: protein: commercial; chain copies: 2; label: 32P 5' end; blunt
[1] = biological target: T1, glucocorticoid receptor (GR) (human, UniProt P04150 1-777); experiment: competition; excess unlabeled self vs labeled GRE3; 20% glycerol, 5 mM MgCl2, 2.5 mM EDTA, 2.5 mM DTT, 250 mM NaCl, 50 mM Tris-HCl pH 7.5, 0.25 mg/ml poly(dI-dC), room temperature 30 min; 0.4 pmol probe in 10 μl, 5 μg extract or 1 μg GR
T1 sequence (P04150 whole entry): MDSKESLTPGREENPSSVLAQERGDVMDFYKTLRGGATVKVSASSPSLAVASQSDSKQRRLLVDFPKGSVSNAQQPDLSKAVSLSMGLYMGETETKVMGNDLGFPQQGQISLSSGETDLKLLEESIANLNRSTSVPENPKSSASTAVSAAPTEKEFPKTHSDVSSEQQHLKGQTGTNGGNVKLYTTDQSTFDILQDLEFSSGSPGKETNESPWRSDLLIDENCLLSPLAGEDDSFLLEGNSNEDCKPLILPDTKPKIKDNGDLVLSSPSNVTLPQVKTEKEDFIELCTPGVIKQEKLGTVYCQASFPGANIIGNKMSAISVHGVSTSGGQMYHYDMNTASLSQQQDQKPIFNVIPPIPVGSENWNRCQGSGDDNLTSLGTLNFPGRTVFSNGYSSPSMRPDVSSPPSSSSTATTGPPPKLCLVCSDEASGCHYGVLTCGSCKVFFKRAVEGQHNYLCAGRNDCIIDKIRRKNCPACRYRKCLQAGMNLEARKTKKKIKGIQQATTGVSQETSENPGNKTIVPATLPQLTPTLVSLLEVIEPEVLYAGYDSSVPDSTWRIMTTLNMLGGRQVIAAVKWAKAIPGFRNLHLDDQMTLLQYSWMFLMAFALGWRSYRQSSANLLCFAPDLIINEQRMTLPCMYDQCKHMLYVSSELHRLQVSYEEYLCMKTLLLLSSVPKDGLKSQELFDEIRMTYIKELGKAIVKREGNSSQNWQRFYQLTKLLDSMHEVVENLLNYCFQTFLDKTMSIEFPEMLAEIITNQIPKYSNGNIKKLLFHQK

[2] = biological target: T1, glucocorticoid receptor (GR); experiment: competition; excess unlabeled vs labeled GRE consensus; 20% glycerol, 5 mM MgCl2, 2.5 mM EDTA, 2.5 mM DTT, 250 mM NaCl, 50 mM Tris-HCl pH 7.5, 0.25 mg/ml poly(dI-dC), room temperature 30 min; 0.4 pmol probe in 10 μl, 5 μg extract or 1 μg GR
[3] = biological target: T1, glucocorticoid receptor (GR); experiment: competition; excess unlabeled self vs labeled GRE4; 20% glycerol, 5 mM MgCl2, 2.5 mM EDTA, 2.5 mM DTT, 250 mM NaCl, 50 mM Tris-HCl pH 7.5, 0.25 mg/ml poly(dI-dC), room temperature 30 min; 0.4 pmol probe in 10 μl, 5 μg extract or 1 μg GR
[4] = biological target: T1, glucocorticoid receptor (GR); experiment: EMSA; anti-GR supershift; 20% glycerol, 5 mM MgCl2, 2.5 mM EDTA, 2.5 mM DTT, 250 mM NaCl, 50 mM Tris-HCl pH 7.5, 0.25 mg/ml poly(dI-dC), room temperature 30 min; 0.4 pmol probe in 10 μl, 5 μg extract or 1 μg GR
[5] = biological target: T1, glucocorticoid receptor (GR); experiment: EMSA; 20% glycerol, 5 mM MgCl2, 2.5 mM EDTA, 2.5 mM DTT, 250 mM NaCl, 50 mM Tris-HCl pH 7.5, 0.25 mg/ml poly(dI-dC), room temperature 30 min; 0.4 pmol probe in 10 μl, 5 μg extract or 1 μg GR

B1: GRE3 (dsDNA)
DNA 1: AAGCACTGCCATGTTCTCACTTATAAGT
DNA 2: ACTTATAAGTGAGAACATGGCAGTGCTT
B1: binds [1].

B2: GRE2 (dsDNA)
DNA 1: TTCCGAACTTCTGTTCTGTTTCCCTCAA
DNA 2: TTGAGGGAAACAGAACAGAAGTTCGGAA
B2: no binding [2].

B3: GRE4 (dsDNA)
DNA 1: GCCATTGTAACTGTTCTCCATCCTTATC
DNA 2: GATAAGGATGGAGAACAGTTACAATGGC
B3: binds [3].

B4: GRE consensus (dsDNA)
DNA 1: TAGAGGATCTGTACAGGATGTTCTAGAT
DNA 2: ATCTAGAACATCCTGTACAGATCCTCTA
B4: binds [4].

B5: GRE1 (dsDNA)
DNA 1: AATGTCACAGATGTTCTCTTAATAAAGA
DNA 2: TCTTTATTAAGAGAACATCTGTGACATT
B5: binds [5].
